Results as given in patent publication US20020127229A1, “Tumour therapy” (priority 1996, published 2002).

Legend:
target cells in vitro = settings: cited from earlier work
[1] = system: human colon carcinoma LS174T; set-up: species or system nude mice; settings: mouse, in vivo
Method: The following figures (FIGS. 2 to 6) illustrate the biodistribution of carboxypeptidase G2 conjugated to PEG in nude mice bearing the human colon carcinoma LS174T. The mice were injected intravenously with the specified amount of enzyme (measured as enzyme units) using 4 mice per time point. Mice were killed at 24 h, 48 h, and 72 h after injection, in some cases at 96 h and 120 h. CPG2 activity in plasma was measured by spectrophotometric assay using methotrexate as the substrate. CPG2 activity in tumour and other tissues was measured by HPLC using methotrexate as the substrate.
The biodistribution of native CPG2 and PEG-CPG2 at 72 hours is illustrated in FIGS. 7 and 8.
FIG. 4(a). Biodistribution of CPG2 activity following use of galactosylated SB43 (clearing antibody). Mice were given CPG2 conjugated to PEG 2000 mwt, average 22 mols PEG per molecule of CPG2, at time 0. Galactosylated monoclonal antibody SB43 was given 19, 20 and 21 hrs later by IP route. The mice were killed at 24 h post CPG2.
In relation to FIG. 4(a) and 4(b) these show good tumour to normal tissue concentration and ratios following use of the clearing antibody. However, it is not possible to administer the clearing antibody as efficiently in the mouse as in the human patient.
I have investigated PEG (mol wt 5000) in the range of 13-32 PEG molecules per enzyme molecule (CPG2, mol wt 83,000); the higher the molecular weight the higher and more prolonged is the plasma concentration of enzyme achieved. The higher the plasma concentration the higher tumour concentration in the tumour model LS174T. Since one objective is to get as much enzyme into the tumour as possible and prolong the period for which an effective concentration of enzyme is sustained in the tumour the conjugate giving the highest concentration of enzyme in blood is preferred. However, the choice of conjugate also has to take account of the need to clear enzyme from blood after the desired concentration of enzyme has been achieved in the tumour(s) and before prodrug is given. A conjugate which is difficult to clear from blood would be disadvantageous so that compromise between these two requirements may be necessary.
Thus, PEG with a molecular weight of 2000 in the range 20 to 40 PEG molecules per molecule of enzyme is preferred, giving a total molecular weight in the range of around 130-160 kDal, but associated water of hydration gives a molecular size equivalent to molecules of much greater weight.

LS174T tumours = experiment: Tumour growth delay in the LS174T tumour model (MDEPT therapy); assay type: in vivo, nude mice; settings: with CPG2 clearance antibody SB43 and the phenol prodrug (25 mg/kg i.p., 3 doses)
Method: FIG. 6. Nude mice bearing LS174T tumours were given 25 enzyme units of CPG2-PEG (22 PEG molecules, PEG 5000) followed at 20 hr, 23 h, 26 h by galactosylated SB43. At 48 h post CPG2-PEG they received 25 mg/kg of a phenol prodrug (4-[N,N-bis(2-chloroethyl)amino]-phenoxycarbonyl-L-glutamic acid) intraperiotoneally, repeated to a total of 3 doses at 1 hr intervals.
FIG. 6. Nude mice bearing LS174T tumours were given 25 enzyme units of CPG2-PEG (22 PEG molecules, PEG 5000) followed at 20 hr, 23 h, 26 h by galactosylated SB43. At 48 h post CPG2-PEG they received 25 mg/kg of a phenol prodrug intraperiotoneally, repeated to a total of 3 doses at 1 hr intervals.

Molecule: CC(NC(=O)C(CCC(=O)O)NC(=O)c1ccc(N(C)Cc2cnc3nc(N)nc(N)c3n2)cc1)C(=O)O (stereo not drawn) [Alanine methotrexate]
- toxicity relative to native methotrexate (fold less) (target cells in vitro): 50-100 fold

B1: Native ^125I-CPG2: bacterial enzyme carboxypeptidase G2, not conjugated to PEG (protein, UniProt P06621 23-415, looked up)
Carboxypeptidase G2: ALAQKRDNVLFQAATDEQPAVIKTLEKLVNIETGTGDAEGIAAAGNFLEAELKNLGFTVTRSKSAGLVVGDNIVGKIKGRGGKNLLLMSHMDTVYLKGILAKAPFRVEGDKAYGPGIADDKGGNAVILHTLKLLKEYGVRDYGTITVLFNTDEEKGSFGSRDLIQEEAKLADYVLSFEPTSAGDEKLSLGTSGIAYVQVNITGKASHAGAAPELGVNALVEASDLVLRTMNIDDKAKNLRFNWTIAKAGNVSNIIPASATLNADVRYARNEDFDAAMKTLEERAQQKKLPEADVKVIVTRGRPAFNAGEGGKKLVDKAVAYYKEAGGTLGVEERTGGGTDAAYAALSGKPVIESLGLPGFGYHSDKAEYVDISAIPRRLYMAARLIMDLGAGK
modifications: 125I label
notes: bacterial enzyme carboxypeptidase G2, not conjugated to PEG
- clearance from blood, tumour and normal tissues [1]: clears rapidly

B2: PEG 5000 at 22 PEGs per CPG2: CPG2 conjugated to PEG 5000, 22 PEG molecules per CPG2 (conjugate, UniProt P06621 23-415, looked up)
Carboxypeptidase G2: B1 Carboxypeptidase G2
modifications: PEG 5000, 22 per molecule
notes: CPG2 conjugated to PEG 5000, 22 PEG molecules per CPG2
- tumour growth delay compared to untreated controls (LS174T tumours): significant growth delay

B3: PEG (5000) 32-CPG2: CPG2 conjugated to PEG 5000 mwt, average 32 PEG molecules per molecule of CPG2 (conjugate, UniProt P06621 23-415, looked up)
Carboxypeptidase G2: B1 Carboxypeptidase G2
modifications: PEG 5000, 32 per molecule
notes: CPG2 conjugated to PEG 5000 mwt, average 32 PEG molecules per molecule of CPG2
- plasma concentration of enzyme [1]: high and persistent

B4: PEG 2000: CPG2 conjugated to PEG 2000 mwt (average 22-27 PEG molecules per CPG2) (conjugate, UniProt P06621 23-415, looked up)
Carboxypeptidase G2: B1 Carboxypeptidase G2
modifications: PEG 2000, 22-27 per molecule
- plasma levels compared with PEG 5000 [1]: lower
- tumour concentrations of enzyme compared with PEG 5000 [1]: similar
